Laboratory results published in patent publication US7202329 (MYRIAD GENETICS, dated 2007).

T1: Tsg101 (aa 231-391) (human, UniProt Q99816 231-390)
T1 sequence (looked up): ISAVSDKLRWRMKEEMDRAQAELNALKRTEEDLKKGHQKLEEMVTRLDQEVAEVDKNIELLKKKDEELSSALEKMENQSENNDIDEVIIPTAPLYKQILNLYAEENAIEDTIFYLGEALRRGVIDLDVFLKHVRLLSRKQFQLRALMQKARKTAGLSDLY

T2: Tsg101 (aa 240-391) (human, UniProt Q99816 240-390)
T2 construct: range 240-391; also called C-terminal fragment of Tsg101; amino acid residues 240-390
T2 sequence (looked up): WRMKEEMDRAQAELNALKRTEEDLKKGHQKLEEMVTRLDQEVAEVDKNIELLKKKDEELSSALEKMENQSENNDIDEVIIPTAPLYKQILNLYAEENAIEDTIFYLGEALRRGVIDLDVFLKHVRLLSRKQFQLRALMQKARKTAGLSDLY

T3: Tsg101 (aa 140-270) (human, UniProt Q99816 140-270)
T3 construct: range 140-270
T3 sequence (looked up): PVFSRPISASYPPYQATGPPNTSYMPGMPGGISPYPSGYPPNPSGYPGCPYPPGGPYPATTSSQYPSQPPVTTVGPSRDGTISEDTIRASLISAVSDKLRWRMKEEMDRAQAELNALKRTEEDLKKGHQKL

T4: Tsg101 (aa 12-326) (human, UniProt Q99816 12-326)
T4 sequence (looked up): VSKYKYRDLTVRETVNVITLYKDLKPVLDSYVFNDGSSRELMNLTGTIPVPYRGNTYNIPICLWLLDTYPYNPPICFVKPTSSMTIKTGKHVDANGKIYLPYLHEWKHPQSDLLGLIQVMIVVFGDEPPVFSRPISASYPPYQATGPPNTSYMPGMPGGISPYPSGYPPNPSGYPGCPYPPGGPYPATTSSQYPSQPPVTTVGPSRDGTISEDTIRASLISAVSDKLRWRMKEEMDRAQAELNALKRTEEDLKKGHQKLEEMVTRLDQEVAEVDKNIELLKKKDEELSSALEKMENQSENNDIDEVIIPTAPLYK

T5: Tsg101 (aa 50-391) (human, UniProt Q99816 50-390)
T5 construct: range 50-391
T5 sequence (looked up): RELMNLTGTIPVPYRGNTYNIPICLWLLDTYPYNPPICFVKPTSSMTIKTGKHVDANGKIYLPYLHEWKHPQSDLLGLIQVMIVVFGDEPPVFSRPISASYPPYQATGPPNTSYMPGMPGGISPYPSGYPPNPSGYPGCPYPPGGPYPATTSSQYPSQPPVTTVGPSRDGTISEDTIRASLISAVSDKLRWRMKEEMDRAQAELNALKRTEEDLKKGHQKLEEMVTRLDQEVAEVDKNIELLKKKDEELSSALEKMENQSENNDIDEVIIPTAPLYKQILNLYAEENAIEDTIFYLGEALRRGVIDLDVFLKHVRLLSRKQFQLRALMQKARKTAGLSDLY

B1: Tropomyosin TM30 p1 (TPM4) (aa 91-142) (other, human, UniProt P67936 91-142, looked up)
chain: MKVIENRAMKDEEKMEIQEMQLKEAKHIAEEADRKYEEVARKLVILEGELER
notes: range 91-142
B2: Chromosome-associated polypeptide HCAP (aa 208-300) (other, human, UniProt Q9UQE7 208-300, looked up)
chain: EELAQYQKWDKMRRALEYTIYNQELNETRAKLDELSAKRETSGEKSRQLRDAQQDARDKMEDIERQVRELKTKISAMKEEKEQLSAERQEQIK
notes: range 208-300
B3: Tropomyosin TM30 p1 (TPM4) (aa 79-142) (other, human, UniProt P67936 79-142, looked up)
chain: EAEKAADESERGMKVIENRAMKDEEKMEIQEMQLKEAKHIAEEADRKYEEVARKLVILEGELER
notes: range 79-142
B4: Rho-associated (ROCK1) (aa 462-617) (other, UniProt Q13464 462-617, looked up)
chain: KIMKELDEEGNQRRNLESTVSQIEKEKMLLQHRINEYQRKAEQENEKRRNVENEVSTLKDQLEDLKKVSQNSQLANEKLSQLQKQLEEANDLLRTESDTAVRLRKSHTEMSKSISQLESLNRELQERNRILENSKSQTDKDYYQLQAILEAERRDR
notes: also called Rho-associated coiled coil-containing kinase ROCK1
B5: Zinc finger protein 231 (ZNF231) (aa 2308-2438) (other, UniProt Q9UPA5 2308-2438, looked up)
chain: EEPLPTTTPAAIKEAAGAPAPAPLAGQKPPADAAPGGGSGALSRPGFEKEEASQEERQRKQQEQLLQLERERVELEKLRQLRLQEELERERVELQRHREEEQLLVQRELQELQTIKHHVLQQQQEERQAQF
notes: range 2308-2438
B6: intersectin 1 (aa 437-584) (other, UniProt Q15811 437-584, looked up)
chain: AKRELERQRQLEWERNRRQELLNQRNKEQEDIVVLKAKKKTLEFELEALNDKKHQLEGKLQDIRCRLTTQRQEIESTNKSRELRIAEITHLQQQLQESQQMLGRLIPEKQILNDQLKQVQQNSLHRDSLVTLKRALEAKELARQHLRD
notes: range 437-584
B7: GTPase-activating protein 1 (aa 1439-1567) (other, UniProt P46940 1439-1567, looked up)
chain: KKSKSVKEDSNLTLQEKKEKIQTGLKKLTELGTVDPKNKYQELINDIARDIRNQRRYRQRRKAELVKLQQTYAALNSKATFYGEQVDYYKSYIKTCLDNLASKGKVSKKPREMKGKKSKKISLKYTAAR
notes: range 1439-1567; also called IQGAP1; IQGAP
B8: GTPase-activating protein 1 (aa 1439-1565) (other, UniProt P46940 1439-1565, looked up)
chain: KKSKSVKEDSNLTLQEKKEKIQTGLKKLTELGTVDPKNKYQELINDIARDIRNQRRYRQRRKAELVKLQQTYAALNSKATFYGEQVDYYKSYIKTCLDNLASKGKVSKKPREMKGKKSKKISLKYTA
notes: range 1439-1565; also called IQGAP1; IQGAP
B9: intersectin 1 (aa 436-547) (other, UniProt Q15811 436-547, looked up)
chain: AAKRELERQRQLEWERNRRQELLNQRNKEQEDIVVLKAKKKTLEFELEALNDKKHQLEGKLQDIRCRLTTQRQEIESTNKSRELRIAEITHLQQQLQESQQMLGRLIPEKQI
notes: range 436-547
B10: GTPase-activating protein 1 (aa 1404-1553) (other, UniProt P46940 1404-1553, looked up)
chain: LTEILETPATSEQEAEHQRAMQRRAIRDAKTPDKMKKSKSVKEDSNLTLQEKKEKIQTGLKKLTELGTVDPKNKYQELINDIARDIRNQRRYRQRRKAELVKLQQTYAALNSKATFYGEQVDYYKSYIKTCLDNLASKGKVSKKPREMKG
notes: range 1404-1553; also called IQGAP1; IQGAP
B11: GTPase-activating protein 1 (aa 1463-1568) (other, UniProt P46940 1463-1568, looked up)
chain: LKKLTELGTVDPKNKYQELINDIARDIRNQRRYRQRRKAELVKLQQTYAALNSKATFYGEQVDYYKSYIKTCLDNLASKGKVSKKPREMKGKKSKKISLKYTAARL
notes: range 1463-1568; also called IQGAP1; IQGAP
B12: GTPase-activating protein 1 (aa 1406-1547) (other, UniProt P46940 1406-1547, looked up)
chain: EILETPATSEQEAEHQRAMQRRAIRDAKTPDKMKKSKSVKEDSNLTLQEKKEKIQTGLKKLTELGTVDPKNKYQELINDIARDIRNQRRYRQRRKAELVKLQQTYAALNSKATFYGEQVDYYKSYIKTCLDNLASKGKVSKK
notes: range 1406-1547; also called IQGAP1; IQGAP
B13: mitotic spindle coiled-coil related protein (aa 942-1021) (other, UniProt Q96R06 942-1021, looked up)
chain: LGSDKSAFTRVASMVSLQPAETPGMEESLAEMSIMTTELQSLCSLLQESKEEAIRTLQRKICELQARLQAQEEQHQEVQK
notes: range 942-1021
B14: hypothetical protein FLJ10540 (aa 1-74) (other, UniProt Q53EZ4 1-74, looked up)
chain: MSSRSTKDLIKSKWGSKPSNSKSETTLEKLKGEIAHLKTSVDEITSGKGKLTDKERHRLLEKIRVLEAEKEKNA
notes: range 1-74
B15: hypothetical protein FLJ10540 (aa 1-115) (other, UniProt Q53EZ4 1-115, looked up)
chain: MSSRSTKDLIKSKWGSKPSNSKSETTLEKLKGEIAHLKTSVDEITSGKGKLTDKERHRLLEKIRVLEAEKEKNAYQLTEKDKEIQRLRDQLKARYSTTTLLEQLEETTREGERRE
notes: range 1-115
B16: hypothetical protein FLJ10540 (aa 1-120) (other, UniProt Q53EZ4 1-120, looked up)
chain: MSSRSTKDLIKSKWGSKPSNSKSETTLEKLKGEIAHLKTSVDEITSGKGKLTDKERHRLLEKIRVLEAEKEKNAYQLTEKDKEIQRLRDQLKARYSTTTLLEQLEETTREGERREQVLKA
notes: range 1-120
B17: hypothetical protein FLJ10540 (aa 2-132) (other, UniProt Q53EZ4 2-132, looked up)
chain: SSRSTKDLIKSKWGSKPSNSKSETTLEKLKGEIAHLKTSVDEITSGKGKLTDKERHRLLEKIRVLEAEKEKNAYQLTEKDKEIQRLRDQLKARYSTTTLLEQLEETTREGERREQVLKALSEEKDVLKQQL
B18: Accessory proteins BAP31/BAP29 (BAP31) (aa 184-246) (other, UniProt P51572 184-246, looked up)
chain: LKADLQKLKDELASTKQKLEKAENQVLAMRKQSEGLTKEYDRLLEEHAKLQAAVDGPMDKKEE
notes: range 184-246
B19: Golgi autoantigen (Golgin-84) (aa 198-501) (other, UniProt Q8TBA6 198-501, looked up)
chain: SKENVSSNAACPDHTPTPNDDGKSHELSNLRLENQLLRNEVQSLNQEMASLLQRSKETQEELNKARARVEKWNADHSKSDRMTRGLRAQVDDLTEAVAAKDSQLAVLKVRLQEADQLLSTRTEALEALQSEKSRIMQDQSEGNSLQNQALQTFQERLHEADATLKREQESYKQMQSEFAARLNKVEMERQNLAEAITLAERKYSDEKKRVDELQQQVKLYKLNLESSKQELIDYKQKATRILQSKEKLINSLKEGSGFEGLDSSTASSMELEELRHEKEMQREEIQKLMGQIHQLRSELQDMEA
notes: range 198-501
B20: Golgi autoantigen (Golgin-84) (aa 198-497) (other, UniProt Q8TBA6 198-497, looked up)
chain: SKENVSSNAACPDHTPTPNDDGKSHELSNLRLENQLLRNEVQSLNQEMASLLQRSKETQEELNKARARVEKWNADHSKSDRMTRGLRAQVDDLTEAVAAKDSQLAVLKVRLQEADQLLSTRTEALEALQSEKSRIMQDQSEGNSLQNQALQTFQERLHEADATLKREQESYKQMQSEFAARLNKVEMERQNLAEAITLAERKYSDEKKRVDELQQQVKLYKLNLESSKQELIDYKQKATRILQSKEKLINSLKEGSGFEGLDSSTASSMELEELRHEKEMQREEIQKLMGQIHQLRSELQ
notes: range 198-497
B21: hypothetical protein FLJ10540 (aa 1-231) (other, UniProt Q53EZ4 1-231, looked up)
chain: MSSRSTKDLIKSKWGSKPSNSKSETTLEKLKGEIAHLKTSVDEITSGKGKLTDKERHRLLEKIRVLEAEKEKNAYQLTEKDKEIQRLRDQLKARYSTTTLLEQLEETTREGERREQVLKALSEEKDVLKQQLSAATSRIAELESKTNTLRLSQTVAPNCFNSSINNIHEMEIQLKDALEKNQQWLVYDQQREVYVKGLLAKIFELEKKTETAAHSLPQQTKKPESEGYLQE
B22: hypothetical protein FLJ10540 (aa 1-117) (other, UniProt Q53EZ4 1-117, looked up)
chain: MSSRSTKDLIKSKWGSKPSNSKSETTLEKLKGEIAHLKTSVDEITSGKGKLTDKERHRLLEKIRVLEAEKEKNAYQLTEKDKEIQRLRDQLKARYSTTTLLEQLEETTREGERREQV
notes: range 1-117
B23: hypothetical protein FLJ10540 (aa 115-231) (other, UniProt Q53EZ4 115-231, looked up)
chain: EQVLKALSEEKDVLKQQLSAATSRIAELESKTNTLRLSQTVAPNCFNSSINNIHEMEIQLKDALEKNQQWLVYDQQREVYVKGLLAKIFELEKKTETAAHSLPQQTKKPESEGYLQE
B24: hypothetical protein FLJ10540 (aa 1-110) (other, UniProt Q53EZ4 1-110, looked up)
chain: MSSRSTKDLIKSKWGSKPSNSKSETTLEKLKGEIAHLKTSVDEITSGKGKLTDKERHRLLEKIRVLEAEKEKNAYQLTEKDKEIQRLRDQLKARYSTTTLLEQLEETTRE
notes: range 1-110

Each binder was assayed against T1, Tsg101 (aa 231-391) (assay: yeast two-hybrid).
B1: binds. B2: binds. B3: binds. B4: binds. B5: binds.

The binders below were run against T2, Tsg101 (aa 240-391) (assay: yeast two-hybrid).
B6: binds. B7: binds. B8: binds. B9: binds. B10: binds. B11: binds. B12: binds. B13: binds.

What follows are binders tested against T3, Tsg101 (aa 140-270) (assay: yeast two-hybrid).
B14: binds. B15: binds. B16: binds. B17: binds.

These binders were tested against T4, Tsg101 (aa 12-326) (assay: yeast two-hybrid).
B18: binds. B19: binds. B20: binds.

What follows are binders tested against T5, Tsg101 (aa 50-391) (assay: yeast two-hybrid).
B21: binds. B22: binds. B23: binds. B24: binds.
